{
  "source": "paper PMC6538526",
  "key": {"[1]": {"biological_target": "GST-BRCA2 fragment B2-9 (amino acids 3189–3418) (UniProt P51587)", "sequence (P51587 3189-3418)": "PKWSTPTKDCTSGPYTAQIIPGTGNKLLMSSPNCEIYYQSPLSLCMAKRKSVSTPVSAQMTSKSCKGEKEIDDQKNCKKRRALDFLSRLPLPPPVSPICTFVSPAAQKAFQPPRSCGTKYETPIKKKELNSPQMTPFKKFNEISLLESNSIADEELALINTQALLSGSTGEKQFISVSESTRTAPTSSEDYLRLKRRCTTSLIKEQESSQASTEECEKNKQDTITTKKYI", "assay": "pull-down"}, "[2]": {"biological_target": "GST-BRCA2 fragment B2-9 (amino acids 3189–3418) (UniProt P51587)", "assay": "pull-down", "remark": "listed apart in the source"}},
  "note": "pIC50: −log10 of the molar value. Where two headings read alike, the source gives them in different places.",
  "data": [
    {"substance": "purified cyclin A (from UniProt P20248 1-432) (natural protein)", "values": [
      {"measurement": "pIC50", "setting": "[1]", "value": 7.55},
      {"measurement": "pIC50", "setting": "[2]", "value": 7.53}
    ]}
  ]
}
